Results on 5 molecules are retold here after CN114591431A (MEISWEI SHANGHAI BIOTECHNOLOGY CO LTD, dated 2022).

The target of assay [1] is T1, 重组人GAS6 his 蛋白(Novoprotein，Cat#C01W) (human, UniProt Q14393 31-678, limits assumed).
T1 construct: Bought protein; not shown: His tag
T1 sequence (looked up): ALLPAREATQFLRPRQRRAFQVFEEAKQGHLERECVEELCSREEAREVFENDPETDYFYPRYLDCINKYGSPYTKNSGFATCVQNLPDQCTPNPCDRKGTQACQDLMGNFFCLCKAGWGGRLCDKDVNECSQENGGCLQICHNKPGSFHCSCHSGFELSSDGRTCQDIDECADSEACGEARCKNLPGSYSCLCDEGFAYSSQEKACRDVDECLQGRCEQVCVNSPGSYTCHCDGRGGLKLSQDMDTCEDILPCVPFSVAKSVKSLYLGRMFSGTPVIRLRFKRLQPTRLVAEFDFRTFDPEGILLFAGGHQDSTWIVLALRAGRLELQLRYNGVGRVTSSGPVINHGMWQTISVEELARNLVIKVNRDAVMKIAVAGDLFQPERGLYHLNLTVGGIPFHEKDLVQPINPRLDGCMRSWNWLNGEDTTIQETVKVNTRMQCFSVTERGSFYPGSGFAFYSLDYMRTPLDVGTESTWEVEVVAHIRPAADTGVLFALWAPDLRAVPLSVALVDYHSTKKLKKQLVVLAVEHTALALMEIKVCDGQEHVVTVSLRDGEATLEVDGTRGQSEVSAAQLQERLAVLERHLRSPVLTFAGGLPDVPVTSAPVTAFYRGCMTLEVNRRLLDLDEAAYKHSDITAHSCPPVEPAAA
As to the kind of experiment: ELISA, coated human GAS6 his 0.5 ug/ml. A general note: ELISA stands for enzyme-linked immunosorbent assay.

The target of assay [2] is T2, 鼠GAS6 his蛋白(Sino Biological，Cat#58026-M08H) (mouse, UniProt Q61592 28-674).
T2 construct: Bought protein; also called 小鼠 GAS6; not shown: His tag
T2 sequence (looked up): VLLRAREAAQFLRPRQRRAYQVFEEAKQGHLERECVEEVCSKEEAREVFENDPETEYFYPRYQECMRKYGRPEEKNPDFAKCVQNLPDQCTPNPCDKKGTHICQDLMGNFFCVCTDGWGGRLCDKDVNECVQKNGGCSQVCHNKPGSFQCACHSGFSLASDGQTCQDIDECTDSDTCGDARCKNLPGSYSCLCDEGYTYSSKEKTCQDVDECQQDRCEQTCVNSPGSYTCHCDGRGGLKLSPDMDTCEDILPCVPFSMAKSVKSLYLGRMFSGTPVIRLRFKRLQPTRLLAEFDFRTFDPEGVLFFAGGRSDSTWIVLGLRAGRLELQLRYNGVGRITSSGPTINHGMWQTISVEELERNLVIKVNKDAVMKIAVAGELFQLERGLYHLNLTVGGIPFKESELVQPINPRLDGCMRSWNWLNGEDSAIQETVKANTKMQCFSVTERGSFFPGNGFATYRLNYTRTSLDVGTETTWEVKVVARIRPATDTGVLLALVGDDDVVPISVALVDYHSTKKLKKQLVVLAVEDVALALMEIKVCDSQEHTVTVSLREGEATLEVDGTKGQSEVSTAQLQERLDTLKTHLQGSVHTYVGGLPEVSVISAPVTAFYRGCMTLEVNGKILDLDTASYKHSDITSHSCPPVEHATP
The assay is described as follows: ELISA, coated mouse GAS6 his 0.5 ug/ml.

Assay [3] has as its target T3, 重组人Protein S his 蛋白(R&D，Cat# 9489-PS) (human, UniProt P07225 42-676, limits assumed).
T3 construct: Bought protein; not shown: His tag
T3 sequence (looked up): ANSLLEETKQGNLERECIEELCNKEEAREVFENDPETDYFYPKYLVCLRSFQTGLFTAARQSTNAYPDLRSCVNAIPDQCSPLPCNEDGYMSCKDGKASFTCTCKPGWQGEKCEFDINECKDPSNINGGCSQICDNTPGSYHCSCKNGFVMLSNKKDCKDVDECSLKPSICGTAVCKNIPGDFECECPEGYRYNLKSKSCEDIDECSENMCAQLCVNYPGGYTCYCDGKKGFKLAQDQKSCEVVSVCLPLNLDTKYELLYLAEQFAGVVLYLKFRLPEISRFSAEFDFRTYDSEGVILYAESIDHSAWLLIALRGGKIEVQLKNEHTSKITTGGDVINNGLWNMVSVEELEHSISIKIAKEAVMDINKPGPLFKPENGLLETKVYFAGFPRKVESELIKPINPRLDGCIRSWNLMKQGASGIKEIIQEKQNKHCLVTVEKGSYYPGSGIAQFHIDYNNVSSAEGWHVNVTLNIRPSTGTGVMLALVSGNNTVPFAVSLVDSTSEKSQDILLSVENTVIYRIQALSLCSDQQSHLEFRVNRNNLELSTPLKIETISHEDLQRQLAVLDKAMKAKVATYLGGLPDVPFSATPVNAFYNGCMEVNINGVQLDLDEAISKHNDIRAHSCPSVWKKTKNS
As to the kind of experiment: ELISA, coated human Protein S his 1 ug/ml.

B1: ch2O18G6 (antibody, human IgG1, kappa, V domains shown)
VH: QVQLQQSGPELVKPGASVKISCKTSGNTFTEYIMHWVKQSHGKSLEWIGGINPKNGGTSYNQKFKGKATLTVDKSSRTAYMELRSLTSEDSAVYYCARVRIPPYVYYAMDYWGQGTTVTVSS
VL: DVVVTQTPLSLPVSLGDQASISCRSSQSIVHSNGNTYLEWYLQKPGQSPKLLIYKVSNRFSGVPDRFSGSGSGTDFTLKISRVEAEDLGVYYCFQGSHVPYTFGGGTKLEIKR
notes: Human-mouse chimeric antibody, hIgG1 (G1m3) / human kappa (Km3), made in HEK293; also called ch2O18G6-IgG
The term EC50 denotes the concentration that produces a half-maximal response. Take B1: the EC50 came out at 0.21 nM in assay [1], 0.22 nM in assay [2] and 0.025 nM in assay [3].

B2: ch15G5E5 (antibody, human IgG1, kappa, V domains shown)
VH: EVQLQQSGPELVKPGASVKMSCKASGYTFTDDYMKWVKQSHGKSLEWIGDINPNNGGTIYNQKFKGKAILTVDKSSSTAYMQLNSLTSEDSAVYYCARRGRGSWGQGTTVTVSS
VL: DVLMTQTPLSLPVSLGDQASISCRSSQSIVYSNGNTYLEWYLQKPGQSPKLLIYRVSNRFSGVPDRFSGSGSGTDFTLKISRVEAEDLGIYYCFQGSHVPLTFGAGTKLELKR
notes: Human-mouse chimeric antibody, hIgG1 (G1m3) / human kappa (Km3), made in HEK293; also called ch15G5E5-IgG
For B2, the EC50 in assay [1] worked out at 0.16 nM; in assay [2], 4.94 nM; in assay [3], 0.2 nM.

B3: ch2D3C6 (antibody, human IgG1, kappa, V domains shown)
VH: DIQLQESGPGLVKPSQSLSLTCSVTGYSITNGYYWNWIRQFPGNKLEWMGYISYDGTNNYNPSLKNRISITRDTSKNQFFLKLNSVTTEDTATYYCARRALWYYAMDYWGQGTSVTVSS
VL: DIVMTQSPASLAVSLGQRATISCKASQSVDYDGESYMNWYQQKPGQPPKLLIYVASNLESGIPARFSGSGSGTDFTLNIHPVEEEDAATYYCQQSDEDPYTFGGGTKLEIKR
notes: Human-mouse chimeric antibody, mouse VH/VL cloned into pTT5_hIgG1.G1m3 / pTT5_hKappa.Km3, made in HEK293; also called ch2D3C6-IgG
Consider B3, for which the results for the 50% effective concentration (EC50) in assay [1] and in assay [2] were 0.19 nM and 1.42 nM, respectively.

B4: ch11B11D12 (antibody, human IgG1, kappa, V domains shown)
VH: QVQLQQSGAELAKPGASVKMSCKASGYTFTRYWIHWVKQRPGQGLEWIGYIIPSTGYTEYSQRFKDKATLTADKSSNTAYMQLSSLTSEDSAVYYCTRYYRYAKYVMDYWGQGTTVTVSS
VL: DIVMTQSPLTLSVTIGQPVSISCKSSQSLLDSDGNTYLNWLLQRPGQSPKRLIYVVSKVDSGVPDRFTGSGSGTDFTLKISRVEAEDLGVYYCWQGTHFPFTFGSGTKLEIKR
notes: Human-mouse chimeric antibody, hIgG1 (G1m3) / human kappa (Km3), made in HEK293; also called ch11B11D12-IgG
In the case of B4, the EC50 worked out at 0.18 nM in assay [1] and 0.15 nM in assay [2].

B5: ch18I16C6 (antibody, human IgG1, kappa, V domains shown)
VH: EVKIEESGGGLVKPGGSLKLSCAASGFTFSSYAMSWFRQTPEKRLEWVASISSGGNSYYPDSVKGRFTISRDNARNILYLQMSSLRSEDTAMYYCSRTPDYWGQGTTVTVSS
VL: DVVMTQSPSSMCASLGERVTITCKASQDINTYLSWFQQKPGKSPKTLIYRANRLVDGVPSRFSGSGSGQDYSLTISSLEYEDMGIYYCLQYDEFPFTFGSGTKLEIKR
notes: Human-mouse chimeric antibody, hIgG1 (G1m3) / human kappa (Km3), made in HEK293; also called ch18I16C6-IgG
As for B5, the EC50 in assay [1] was 0.11 nM; in assay [2] it was 0.1 nM; in assay [3], 0.008 nM.
